This note sets out measurements from article PMC12687424, “Penetrant PKCβ mutation in ATLL displays a mixed gain-of-function” (Biochemical Journal, 2025).

For experiment [1], the target named is T1, WT PKCβII catalytic domain (UniProt P05771-2 321-673, primed (phosphorylated) at the three PKC priming sites (T-loop, turn motif, hydrophobic motif)).
T1 construct: Protein kinase C beta, isoform PKCβII, catalytic domain released by TEV cleavage from GST-(3C)-PKCβII that carries a TEV site at position 321; Plasmids for WT PKCβI and PKCβII came from the laboratory archive; also called protein kinase C beta II catalytic domain; PKCβII kinase domain; source: SF21 cells (baculovirus), purified (Glutathione-Sepharose, His-TEV cleavage, Superdex 200); not shown: …
T1 sequence (P05771 other isoform, or with tags, fused parts or gaps): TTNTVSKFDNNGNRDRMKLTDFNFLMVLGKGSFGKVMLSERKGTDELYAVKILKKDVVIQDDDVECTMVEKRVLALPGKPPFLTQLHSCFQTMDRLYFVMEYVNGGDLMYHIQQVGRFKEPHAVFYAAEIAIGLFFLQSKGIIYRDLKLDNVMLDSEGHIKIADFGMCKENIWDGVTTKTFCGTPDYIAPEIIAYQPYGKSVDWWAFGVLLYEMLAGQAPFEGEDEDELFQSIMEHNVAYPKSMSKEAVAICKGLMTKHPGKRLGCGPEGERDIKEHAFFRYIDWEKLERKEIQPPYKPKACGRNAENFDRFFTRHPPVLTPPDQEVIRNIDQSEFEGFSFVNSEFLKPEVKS
The experiment is described as follows: fluorescence polarisation; PKCβII catalytic domain titrated into 280 nM fluorescein-PSS peptide in a cuvette; 20°C; 50 mM Tris-HCl pH 7.5, 150 mM NaCl, 5 mM MgCl2, 0.05% Brij-35, 500 μM AMP-PCP, 5% glycerol; anisotropy fitted assuming a 1:1 interaction. As to conditions: both partners purified.

In experiment [2] the target is T2, D427N PKCβII catalytic domain (UniProt P05771-2 321-673, D427N, phosphorylated at T500 and at the other two PKC priming sites in the C-terminal tail).
T2 construct: D427N is a somatic mutation found in ATLL patients; source: SF21 cells (baculovirus), purified (Glutathione-Sepharose, His-TEV cleavage, Superdex 200); not shown: GST, N-terminal, cleaved
T2 sequence (P05771 other isoform, or with tags, fused parts or gaps D427N | D427N | D427N D427N): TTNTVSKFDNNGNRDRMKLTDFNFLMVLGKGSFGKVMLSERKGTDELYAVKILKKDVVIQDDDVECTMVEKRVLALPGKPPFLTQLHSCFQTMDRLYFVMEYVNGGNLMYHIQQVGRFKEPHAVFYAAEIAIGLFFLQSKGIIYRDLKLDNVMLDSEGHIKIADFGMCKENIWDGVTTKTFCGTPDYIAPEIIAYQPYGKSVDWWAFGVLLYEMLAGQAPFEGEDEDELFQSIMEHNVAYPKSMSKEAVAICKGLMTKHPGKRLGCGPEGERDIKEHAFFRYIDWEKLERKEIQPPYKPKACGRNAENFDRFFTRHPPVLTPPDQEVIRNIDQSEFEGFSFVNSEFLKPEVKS
The experiment is described as above. To be noted: both partners purified.

FAM = fluorescein label

B1: Fluorescein-PSS peptide (peptide)
peptide: {FAM}-ESTVRFARKGSLRQKNVH-NH2
notes: source: synthetic peptide (HPLC purified to >95%)
For orientation: Kd means the equilibrium constant for the complex coming apart. For the molecule B1, the Kd in experiment [1] stood at 35.3 µM; in experiment [2] it was 72 µM.
